One block for each binder: values may come before it.
Legend:
[1] = molecular target: M44-modified E NTAA target peptides; experiment: encoding assay; P2 D;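 further: fraction of recording tags encoded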
[2] = molecular target: M44-modified T NTAA target peptides; experiment: encoding assay; P2 D;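 further: fraction of recording tags encoded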
[3] = molecular target: M44-modified P NTAA target peptides; experiment: encoding assay; P2 D;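 further: fraction of recording tags encoded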
[4] = molecular target: M44-modified V NTAA target peptides; experiment: encoding assay; P2 D;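 further: fraction of recording tags encoded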
[5] = molecular target: M44-modified G NTAA target peptides (M44-G-P2-peptide); experiment: encoding assay; P2 N;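 further: fraction of recording tags encoded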
[6] = molecular target: M44-modified A NTAA target peptides (M44-A-P2-peptide); experiment: encoding assay; P2 N;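 further: fraction of recording tags encoded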
[7] = molecular target: M44-modified T NTAA target peptides; experiment: encoding assay; P2 N;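 further: fraction of recording tags encoded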
[8] = molecular target: M44-modified P NTAA target peptides; experiment: encoding assay; P2 N;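 further: fraction of recording tags encoded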
[9] = molecular target: M44-modified G NTAA target peptides (M44-G-P2-peptide); experiment: encoding assay; P2 H;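 further: fraction of recording tags encoded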
[10] = molecular target: M44-modified E NTAA target peptides; experiment: encoding assay; P2 H;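 further: fraction of recording tags encoded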
[11] = molecular target: M44-modified S NTAA target peptides; experiment: encoding assay; P2 H
[12] = molecular target: M17-modified M NTAA target peptides; experiment: encoding assay; P2 D;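 further: fraction of recording tags encoded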
[13] = molecular target: M17-modified F NTAA target peptides; experiment: encoding assay; P2 D;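 further: fraction of recording tags encoded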
[14] = molecular target: M17-modified W NTAA target peptides; experiment: encoding assay; P2 D;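 further: fraction of recording tags encoded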
[15] = molecular target: M17-modified T NTAA target peptides; experiment: encoding assay; P2 D;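 further: fraction of recording tags encoded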
[16] = molecular target: M17-modified G NTAA target peptides; experiment: encoding assay; P2 D;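 further: fraction of recording tags encoded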
[17] = molecular target: M17-modified V NTAA target peptides; experiment: encoding assay; P2 D;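 further: fraction of recording tags encoded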
[18] = molecular target: M17-modified H NTAA target peptides; experiment: encoding assay; P2 D;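 further: fraction of recording tags encoded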
[19] = molecular target: M17-modified Y NTAA target peptides (M17-Y-P2-peptide); experiment: encoding assay; P2 D;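 further: fraction of recording tags encoded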
[20] = molecular target: M17-modified D NTAA target peptides; experiment: encoding assay; P2 D;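 further: fraction of recording tags encoded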
[21] = molecular target: M17-modified E NTAA target peptides; experiment: encoding assay; P2 D;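 further: fraction of recording tags encoded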
[22] = molecular target: M17-modified S NTAA target peptides; experiment: encoding assay; P2 D;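 further: fraction of recording tags encoded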
[23] = molecular target: M17-modified L NTAA target peptides; experiment: encoding assay; P2 D;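 further: fraction of recording tags encoded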
[24] = molecular target: M17-modified A NTAA target peptides; experiment: encoding assay; P2 D;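 further: fraction of recording tags encoded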
[25] = molecular target: M17-modified N NTAA target peptides; experiment: encoding assay; P2 D;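 further: fraction of recording tags encoded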
[26] = molecular target: M17-modified M NTAA target peptides; experiment: encoding assay; P2 N;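 further: fraction of recording tags encoded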
[27] = molecular target: M17-modified F NTAA target peptides; experiment: encoding assay; P2 N;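 further: fraction of recording tags encoded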
[28] = molecular target: M17-modified I NTAA target peptides; experiment: encoding assay; P2 N;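 further: fraction of recording tags encoded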
[29] = molecular target: M17-modified W NTAA target peptides; experiment: encoding assay; P2 N;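 further: fraction of recording tags encoded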
[30] = molecular target: M17-modified T NTAA target peptides; experiment: encoding assay; P2 N;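 further: fraction of recording tags encoded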
[31] = molecular target: M17-modified G NTAA target peptides; experiment: encoding assay; P2 N;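 further: fraction of recording tags encoded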
[32] = molecular target: M17-modified V NTAA target peptides; experiment: encoding assay; P2 N;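 further: fraction of recording tags encoded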
[33] = molecular target: M17-modified H NTAA target peptides; experiment: encoding assay; P2 N;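 further: fraction of recording tags encoded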
[34] = molecular target: M17-modified P NTAA target peptides; experiment: encoding assay; P2 N;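 further: fraction of recording tags encoded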
[35] = molecular target: M17-modified Y NTAA target peptides (M17-Y-P2-peptide); experiment: encoding assay; P2 N;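 further: fraction of recording tags encoded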
[36] = molecular target: M17-modified D NTAA target peptides; experiment: encoding assay; P2 N;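 further: fraction of recording tags encoded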
[37] = molecular target: M17-modified Q NTAA target peptides; experiment: encoding assay; P2 N;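 further: fraction of recording tags encoded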
[38] = molecular target: M17-modified E NTAA target peptides; experiment: encoding assay; P2 N;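 further: fraction of recording tags encoded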
[39] = molecular target: M17-modified S NTAA target peptides; experiment: encoding assay; P2 N;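 further: fraction of recording tags encoded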
[40] = molecular target: M17-modified L NTAA target peptides; experiment: encoding assay; P2 N;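 further: fraction of recording tags encoded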
[41] = molecular target: M17-modified A NTAA target peptides; experiment: encoding assay; P2 N;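 further: fraction of recording tags encoded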
[42] = molecular target: M17-modified N NTAA target peptides; experiment: encoding assay; P2 N;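 further: fraction of recording tags encoded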
[43] = molecular target: M17-modified M NTAA target peptides; experiment: encoding assay; P2 H;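 further: fraction of recording tags encoded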
[44] = molecular target: M17-modified I NTAA target peptides; experiment: encoding assay; P2 H;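 further: fraction of recording tags encoded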
[45] = molecular target: M17-modified W NTAA target peptides; experiment: encoding assay; P2 H;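 further: fraction of recording tags encoded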
[46] = molecular target: M17-modified T NTAA target peptides; experiment: encoding assay; P2 H;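 further: fraction of recording tags encoded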
[47] = molecular target: M17-modified V NTAA target peptides; experiment: encoding assay; P2 H;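 further: fraction of recording tags encoded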
[48] = molecular target: M17-modified H NTAA target peptides; experiment: encoding assay; P2 H;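 further: fraction of recording tags encoded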
[49] = molecular target: M17-modified Y NTAA target peptides (M17-Y-P2-peptide); experiment: encoding assay; P2 H;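 further: fraction of recording tags encoded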
[50] = molecular target: M17-modified D NTAA target peptides; experiment: encoding assay; P2 H;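 further: fraction of recording tags encoded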
[51] = molecular target: M17-modified E NTAA target peptides; experiment: encoding assay; P2 H;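 further: fraction of recording tags encoded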
[52] = molecular target: M17-modified S NTAA target peptides; experiment: encoding assay; P2 H;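 further: fraction of recording tags encoded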
[53] = molecular target: M17-modified A NTAA target peptides; experiment: encoding assay; P2 H;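 further: fraction of recording tags encoded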
[54] = molecular target: M17-modified N NTAA target peptides; experiment: encoding assay; P2 H;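 further: fraction of recording tags encoded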

B2: engineered M17-Y binder (SEQ ID NO: 61) (designed binder, not shown: small tags and cut ends; large carriers)
chain: TVPDRSEIAGKWYVVALASNTEFYLREKDWVKSAMARISFLGEDELKVSSAVPSPNGCYKVERTWKKTSDDGEVYNSRAAKLKVEVLDTDYKSYAVIYATRVKDGRTDHQMILYSRSPEVSPAATAIFRKLAGERNYTDEMVAMLPRQEECTVDEV
encoding yield [12]: 0.02
encoding yield [13]: 0.04
encoding yield [14]: 0.02
encoding yield [15]: 0.01
encoding yield [16]: 0.03
encoding yield [17]: 0.02
encoding yield [18]: 0.01
encoding yield [19]: 0.05
encoding yield [20]: 0.01
encoding yield [21]: 0.02
encoding yield [22]: 0.01
encoding yield [23]: 0.02
encoding yield [24]: 0.02
encoding yield [25]: 0.02
encoding yield [26]: 0.01
encoding yield [27]: 0.02
encoding yield [28]: 0.02
encoding yield [29]: 0.02
encoding yield [30]: 0.01
encoding yield [31]: 0.03
encoding yield [32]: 0.02
encoding yield [33]: 0.03
encoding yield [34]: 0.01
encoding yield [35]: 0.06
encoding yield [36]: 0.02
encoding yield [37]: 0.02
encoding yield [38]: 0.02
encoding yield [39]: 0.02
encoding yield [40]: 0.02
encoding yield [41]: 0.02
encoding yield [42]: 0.03
encoding yield [43]: 0.02
encoding yield [44]: 0.03
encoding yield [45]: 0.02
encoding yield [46]: 0.02
encoding yield [47]: 0.03
encoding yield [48]: 0.03
encoding yield [49]: 0.07
encoding yield [50]: 0.02
encoding yield [51]: 0.01
encoding yield [52]: 0.01
encoding yield [53]: 0.02
encoding yield [54]: 0.03

B4: engineered M44-A binder (SEQ ID NO: 42) (designed binder, not shown: small tags and cut ends; large carriers)
chain: QVSVQPNFQQDKFLGRWFVAGLASNSSWDREKVAALSGAKMVVAPATDGGLNVTRTMLRKNQCETYTGLLQPAGSLGSYSWRSPHPGSTGSESVVETDYDQYALVYGQGSKGPGEDLRAAALWSRTQTPRAELKEKFTAFSKAQGFTEDTIVFLPQTDKCMTEQ
encoding yield [1]: 0.01
encoding yield [2]: 0.01
encoding yield [3]: 0.01
encoding yield [4]: 0.03
encoding yield [5]: 0.03
encoding yield [6]: 0.1
encoding yield [7]: 0.02
encoding yield [8]: 0.02
encoding yield [9]: 0.01
encoding yield [10]: 0.03
encoding yield [11]: 0.01

Next, values leading:

encoding yield [1]: 0.01
encoding yield [2]: 0.01
encoding yield [3]: 0.01
encoding yield [4]: 0.03
encoding yield [5]: 0.02
encoding yield [6]: 0.02
encoding yield [7]: 0.01
encoding yield [8]: 0.01
encoding yield [9]: 0.01
encoding yield [10]: 0.02
encoding yield [11]: 0.01
B1: engineered M44-L binder (SEQ ID NO: 31) (designed binder, not shown: small tags and cut ends; large carriers)
chain: QDSTQNLIPAPPLISVPLQPGFWTERFQGRWFLVGFAGNAVQKERQSRLTMQSLILELQEDNSYNITAINVRGQGCRYIISTLVPSSRPGQFTLGNIHSYPQIQSLDVQVADTDYDQFAMVFLQGTSENKQYFEVALAGRTKGLSDELKERFVSFAKSLGLKDNNIVFSVPTDQCIDN

encoding yield [12]: 0.03
encoding yield [13]: 0.05
encoding yield [14]: 0.03
encoding yield [15]: 0.01
encoding yield [16]: 0.03
encoding yield [17]: 0.02
encoding yield [18]: 0.02
encoding yield [19]: 0.1
encoding yield [20]: 0.02
encoding yield [21]: 0.02
encoding yield [22]: 0.01
encoding yield [23]: 0.03
encoding yield [24]: 0.03
encoding yield [25]: 0.03
encoding yield [26]: 0.02
encoding yield [27]: 0.01
encoding yield [28]: 0.03
encoding yield [29]: 0.02
encoding yield [30]: 0.01
encoding yield [31]: 0.03
encoding yield [32]: 0.03
encoding yield [33]: 0.03
encoding yield [34]: 0.02
encoding yield [35]: 0.15
encoding yield [36]: 0.02
encoding yield [37]: 0.02
encoding yield [38]: 0.03
encoding yield [39]: 0.02
encoding yield [40]: 0.03
encoding yield [41]: 0.02
encoding yield [42]: 0.04
encoding yield [43]: 0.03
encoding yield [44]: 0.03
encoding yield [45]: 0.03
encoding yield [46]: 0.03
encoding yield [47]: 0.02
encoding yield [48]: 0.02
encoding yield [49]: 0.07
encoding yield [50]: 0.03
encoding yield [51]: 0.02
encoding yield [52]: 0.02
encoding yield [53]: 0.03
encoding yield [54]: 0.03
B3: upgraded binder after additional maturation round (SEQ ID NO: 62) (designed binder, not shown: small tags and cut ends; large carriers)
chain: TVPDRSEIAGKWYVVALASNTEFYLRGKDRVKSAMVRISFQGEDELKVSSAVPSPNGCYKVERTWKKTSDDGEVYNSRAAKLKVEVLDTDYKSYAVIYATRVKDRRTDHQMILYSRSPDVSPAATAIFRKLAGERNYTDEMVAMLPRQEECTVDEV

Source: patent publication US20230220589A1
